According to patent publication US20110008376:

Assays:
[1] = biological target: cH5-1 (misfolded H5 of A/VN/1203/04, heat cycling)
[2] = biological target: cH5-2 (misfolded H5 of A/VN/1203/04, heat cycling at pH 2)
[3] = biological target: cH5-3 (misfolded H5 of A/VN/1203/04, heat cycling at pH 12)
[4] = biological target: cH5-4 (glycated H5 of A/VN/1203/04)
[5] = biological target: T1, dOVA-1 (misfolded ovalbumin comprising crossbeta, acid treated), P01012
T1 chain: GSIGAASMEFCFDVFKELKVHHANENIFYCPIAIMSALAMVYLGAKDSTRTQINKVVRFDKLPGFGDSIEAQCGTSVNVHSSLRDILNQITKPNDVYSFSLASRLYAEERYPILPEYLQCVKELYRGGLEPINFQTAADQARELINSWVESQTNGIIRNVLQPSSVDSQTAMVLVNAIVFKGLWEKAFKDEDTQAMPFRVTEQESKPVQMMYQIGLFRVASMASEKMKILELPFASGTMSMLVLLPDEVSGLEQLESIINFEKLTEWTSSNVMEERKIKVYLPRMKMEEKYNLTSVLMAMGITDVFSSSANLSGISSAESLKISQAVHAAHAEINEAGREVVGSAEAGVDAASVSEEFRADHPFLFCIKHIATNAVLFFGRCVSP

[6] = biological target: T2, dOVA-2 (misfolded ovalbumin comprising crossbeta, cyclic heating 30-85 C), P01012
T2 chain: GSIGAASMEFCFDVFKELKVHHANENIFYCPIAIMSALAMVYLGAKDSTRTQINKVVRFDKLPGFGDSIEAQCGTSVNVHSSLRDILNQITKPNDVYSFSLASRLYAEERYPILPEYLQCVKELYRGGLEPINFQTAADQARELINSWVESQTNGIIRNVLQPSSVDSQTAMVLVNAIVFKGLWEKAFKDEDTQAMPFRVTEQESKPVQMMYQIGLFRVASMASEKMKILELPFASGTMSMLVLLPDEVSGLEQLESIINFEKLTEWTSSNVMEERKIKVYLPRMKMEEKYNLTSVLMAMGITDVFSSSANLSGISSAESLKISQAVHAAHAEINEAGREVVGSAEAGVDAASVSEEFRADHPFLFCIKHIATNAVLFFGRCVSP

[7] = biological target: T3, dOVA-3 (misfolded ovalbumin comprising crossbeta, about 16 h at 75 C), P01012
T3 chain: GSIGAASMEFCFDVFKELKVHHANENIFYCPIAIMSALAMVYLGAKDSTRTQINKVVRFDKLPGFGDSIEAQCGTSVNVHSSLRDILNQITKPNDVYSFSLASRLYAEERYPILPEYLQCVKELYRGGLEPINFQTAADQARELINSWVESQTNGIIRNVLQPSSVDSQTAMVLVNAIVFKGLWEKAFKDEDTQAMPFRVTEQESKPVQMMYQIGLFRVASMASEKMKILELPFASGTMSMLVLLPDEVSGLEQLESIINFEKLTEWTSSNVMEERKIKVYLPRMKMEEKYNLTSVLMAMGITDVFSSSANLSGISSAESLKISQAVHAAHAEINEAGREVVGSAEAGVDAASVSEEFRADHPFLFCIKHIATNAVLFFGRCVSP

[8] = biological target: nH5 (non-treated H5 of H5N1 strain A/Vietnam/1203/04, first example)
[9] = biological target: T4, nOVA (untreated ovalbumin, 1 mg/ml in PBS), P01012
T4 chain: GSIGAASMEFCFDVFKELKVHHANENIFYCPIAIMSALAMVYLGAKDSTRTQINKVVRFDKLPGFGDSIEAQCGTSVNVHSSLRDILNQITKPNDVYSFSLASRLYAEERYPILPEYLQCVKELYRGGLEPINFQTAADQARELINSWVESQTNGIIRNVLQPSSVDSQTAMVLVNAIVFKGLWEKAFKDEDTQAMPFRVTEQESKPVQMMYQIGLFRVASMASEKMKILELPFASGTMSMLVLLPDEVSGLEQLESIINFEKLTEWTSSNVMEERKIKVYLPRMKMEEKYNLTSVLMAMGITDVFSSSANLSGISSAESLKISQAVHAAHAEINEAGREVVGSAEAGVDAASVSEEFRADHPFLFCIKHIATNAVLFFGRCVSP

B1: tissue type plasminogen activator (tPA) (protein)
chain: SYQVICRDEKTQMIYQQHQSWLRPVLRSNRVEYCWCNSGRAQCHSVPVKSCSEPRCFNGGTCQQALYFSDFVCQCPEGFAGKCCEIDTRATCYEDQGISYRGTWSTAESGAECTNWNSSALAQKPYSGRRPDAIRLGLGNHNYCRNPDRDSKPWCYVFKAGKYSSEFCSTPACSEGNSDCYFGNGSAYRGTHSLTESGASCLPWNSMILIGKVYTAQNPSAQALGLGKHNYCRNPDGDAKPWCHVLKNRRLTWEYCDVPSCSTCGLRQYSQPQFRIKGGLFADIASHPWQAAIFAKHRRSPGERFLCGGILISSCWILSAAHCFQERFPPHHLTVILGRTYRVVPGEEEQKFEVEKYIVHKEFDDDTYDNDIALLQLKSDSSRCAQESSVVRTVCLPPADLQLPDWTECELSGYGKHEALSPFYSERLKEAHVRLYPSSRCTSQHLLNRTVTDNMLCAGDTRSGGPQANLHDACQGDSGGPLVCLNDGRMTLVGIISWGLGCGQKDVPGVYTKVTNYLDWIRDNMRP
- tPA mediated plasminogen activation assay [1]: cH5-1 (50% of standard)
- tPA mediated plasminogen activation assay [2]: cH5-2 (150% of standard)
- tPA mediated plasminogen activation assay [3]: cH5-3 (200% of standard)
- tPA mediated plasminogen activation assay [4]: cH5-4 (37% of standard)
- tPA activation potency, Activation at 10 µg/mL [5]: 97.4%
- tPA activation potency, Activation at 25 µg/mL [5]: 136%
- tPA activation potency, Activation at 10 µg/mL [6]: 107%
- tPA activation potency, Activation at 25 µg/mL [6]: 107%
- tPA-mediated plasminogen activation (plasmin chromogenic substrate), reference dOVA-2 at 80 µg/mL [6]: 100%
- tPA/Plg activating potential, crossbeta ovalbumin standard at 10 µg/ml [6]: at 10 and 50 µg/ml, tPA/plg activation is 100% and 85%, respectively
- tPA/Plg activating potential, crossbeta ovalbumin standard at 30 µg/ml [6]: The activating potential of crossbeta ovalbumin standard at 30 µg/ml is set to 100%
- tPA/Plg activating potential, crossbeta ovalbumin standard at 50 µg/ml [6]: at 10 and 50 µg/ml, tPA/plg activation is 100% and 85%, respectively
- tPA activation potency, Activation at 10 µg/mL [7]: 60.9%
- tPA activation potency, Activation at 25 µg/mL [7]: 79%
- tPA mediated plasminogen activation assay [8]: nH5 (140% of standard)
- tPA activation potency, Activation at 10 µg/mL [9]: 48.8%
- tPA activation potency, Activation at 25 µg/mL [9]: 48.1%
